Non-standard residues stand in square brackets, D forms with d. No end group written: not given here. pS = N[C@@H](COP(=O)(O)O)C(=O)O
Assays:
HLA-A*02:01 [1] = target: T1, HLA-A*02:01 (human); assay: UV-ligand exchange + anti-b2m ELISA; ++++ = peptide exchange yield >75%
T1 construct: MHC monomer first loaded with a UV-sensitive peptide, which is cleaved by UV and exchanged with the test peptide; captured on streptavidin plates; also called peptide-receptive MHC molecules
Excerpt: (§1) Candidate peptides for T cell based therapies according to the present invention were further tested for their MHC binding capacity (affinity). The individual peptide-MHC complexes were produced by UV-ligand exchange, where a UV-sensitive peptide is cleaved upon UV-irradiation, and exchanged with the peptide of interest as analyzed. Only peptide candidates that can effectively bind and stabilize the peptide-receptive MHC molecules prevent dissociation of the MHC complexes. To determine the yield of the exchange reaction, an ELISA was performed based on the detection of the light chain (β2m) of stabilized MHC complexes. The assay was performed as generally described in Rodenko et al. (Rodenko et al., 2006).
(§2) 96 well MAXISorp plates (NUNC) were coated over night with 2 ug/ml streptavidin in PBS at room temperature, washed 4× and blocked forth at 37° C. in 2% BSA containing blocking buffer. Refolded HLA-A*02:01/MLA-001 monomers served as standards, covering the range of 15-500 ng/ml. Peptide-MHC monomers of the UV-exchange reaction were diluted 100 fold in blocking buffer. Samples were incubated for 1 h at 37° C., washed four times, incubated with 2 ug/ml HRP conjugated anti-β2m for 1 h at 37° C., washed again and detected with TMB solution that is stopped with […]. Absorption was measured at 450 nm. Candidate peptides that show a high exchange yield (preferably higher than 50%, most preferred higher than 75%) are generally preferred for a generation and production of antibodies or fragments thereof, and/or T cell receptors or fragments thereof, as they show sufficient avidity to the MHC molecules and prevent dissociation of the MHC complexes.

HLA-A*02:01 [2] = target: T1, HLA-A*02:01; assay: UV-ligand exchange + anti-b2m ELISA; +++ = peptide exchange yield >50
Excerpt: as §1, §2

B1: ILLQASVQV (peptide)
peptide: ILLQASVQV
notes: gene: TMPRSS4
peptide exchange yield (HLA-A*02:01 [1]): > 75%

B2: GLWHGMFANV (peptide)
peptide: GLWHGMFANV
notes: gene: DIP2B
peptide exchange yield (HLA-A*02:01 [1]): > 75%

B3: FVFEPPPGV (peptide)
peptide: FVFEPPPGV
notes: gene: DYNC1H1
peptide exchange yield (HLA-A*02:01 [1]): > 75%

B4: AMAELRVVV (peptide)
peptide: AMAELRVVV
notes: gene: CYP4F22
peptide exchange yield (HLA-A*02:01 [1]): > 75%

B5: ILEPSLYTV (peptide)
peptide: ILEPSLYTV
notes: gene: COPZ1
peptide exchange yield (HLA-A*02:01 [1]): > 75%

B6: NLAGVYSEV (peptide)
peptide: NLAGVYSEV
notes: gene: DRG1
peptide exchange yield (HLA-A*02:01 [1]): > 75%

B7: GVALTVTGV (peptide)
peptide: GVALTVTGV
notes: gene: FLOT2
peptide exchange yield (HLA-A*02:01 [1]): > 75%

B8: SLLRVGWSV (peptide)
peptide: SLLRVGWSV
notes: genes: BSCL2, HNRNPUL2
peptide exchange yield (HLA-A*02:01 [1]): > 75%

B9: KLWGQSIQL (peptide)
peptide: KLWGQSIQL
notes: gene: SWT1
peptide exchange yield (HLA-A*02:01 [1]): > 75%

B10: TLTSKLYSL (peptide)
peptide: TLTSKLYSL
notes: gene: UQCR10
peptide exchange yield (HLA-A*02:01 [1]): > 75%

B11: ILTSIQSLL (peptide)
peptide: ILTSIQSLL
notes: genes: UBE2A, UBE2B
peptide exchange yield (HLA-A*02:01 [1]): > 75%

B12: YILEGEPGKV (peptide)
peptide: YILEGEPGKV
notes: gene: SRP68
peptide exchange yield (HLA-A*02:01 [1]): > 75%

B13: GLDPLGYEIQL (peptide)
peptide: GLDPLGYEIQL
notes: gene: NUP107
peptide exchange yield (HLA-A*02:01 [1]): > 75%

B14: ALFPHLLQPVL (peptide)
peptide: ALFPHLLQPVL
notes: gene: CSE1L
peptide exchange yield (HLA-A*02:01 [1]): > 75%

B15: ALLDGRVQL (peptide)
peptide: ALLDGRVQL
notes: gene: AGRN
peptide exchange yield (HLA-A*02:01 [1]): > 75%

B16: SMFGAGLTV (peptide)
peptide: SMFGAGLTV
notes: gene: ATP6V0B
peptide exchange yield (HLA-A*02:01 [1]): > 75%

B17: YLARIQGFQV (peptide)
peptide: YLARIQGFQV
notes: gene: STAU2
peptide exchange yield (HLA-A*02:01 [1]): > 75%

B18: TLGVIPESV (peptide)
peptide: TLGVIPESV
notes: gene: USP48
peptide exchange yield (HLA-A*02:01 [1]): > 75%

B19: SIAAYNPVV (peptide)
peptide: SIAAYNPVV
notes: gene: DHRS2
peptide exchange yield (HLA-A*02:01 [1]): > 75%

B20: YLPDSLTQL (peptide)
peptide: YLPDSLTQL
notes: gene: LRRC1
peptide exchange yield (HLA-A*02:01 [1]): > 75%

B21: YTLSKTEFL (peptide)
peptide: YTLSKTEFL
notes: gene: S100A11
peptide exchange yield (HLA-A*02:01 [1]): > 75%

B22: SLLGGITVV (peptide)
peptide: SLLGGITVV
notes: gene: SPAG9
peptide exchange yield (HLA-A*02:01 [1]): > 75%

B23: GLALLYSGV (peptide)
peptide: GLALLYSGV
notes: gene: ATP6V0B
peptide exchange yield (HLA-A*02:01 [1]): > 75%

B24: GLIDSLMAYV (peptide)
peptide: GLIDSLMAYV
notes: gene: PKP1
peptide exchange yield (HLA-A*02:01 [1]): > 75%

B25: YLDEIPPKFSM (peptide)
peptide: YLDEIPPKFSM
notes: gene: TACSTD2
peptide exchange yield (HLA-A*02:01 [1]): > 75%

B26: SLFDGIATGL (peptide)
peptide: SLFDGIATGL
notes: gene: DNMT3A
peptide exchange yield (HLA-A*02:01 [1]): > 75%

B27: SLDVVNLLV (peptide)
peptide: SLDVVNLLV
notes: gene: ANKRD50
peptide exchange yield (HLA-A*02:01 [1]): > 75%

B28: FLDDGNQMLL (peptide)
peptide: FLDDGNQMLL
notes: gene: DYNC2H1
peptide exchange yield (HLA-A*02:01 [1]): > 75%

B29: FLIESKLLSL (peptide)
peptide: FLIESKLLSL
notes: gene: DRC1
peptide exchange yield (HLA-A*02:01 [1]): > 75%

B30: IQDPVIFYV (peptide)
peptide: IQDPVIFYV
notes: gene: GPR126
peptide exchange yield (HLA-A*02:01 [1]): > 75%

B31: GLAHFVNEI (peptide)
peptide: GLAHFVNEI
notes: gene: ZMYM2
peptide exchange yield (HLA-A*02:01 [1]): > 75%

B32: WLSTSIPEA (peptide)
peptide: WLSTSIPEA
notes: gene: FASN
peptide exchange yield (HLA-A*02:01 [1]): > 75%

B33: SLSDVRVIV (peptide)
peptide: SLSDVRVIV
notes: gene: RALGAPA2
peptide exchange yield (HLA-A*02:01 [1]): > 75%

B34: IITDLLRSV (peptide)
peptide: IITDLLRSV
notes: gene: FUBP1
peptide exchange yield (HLA-A*02:01 [1]): > 75%

B35: FLTPPLLSV (peptide)
peptide: FLTPPLLSV
notes: gene: AP2A1
peptide exchange yield (HLA-A*02:01 [1]): > 75%

B36: SLFTGLRSI (peptide)
peptide: SLFTGLRSI
notes: genes: DUOX2, DUOX1
peptide exchange yield (HLA-A*02:01 [2]): 50 to 75%

B37: VLKVFLENV (peptide)
peptide: VLKVFLENV
peptide exchange yield (HLA-A*02:01 [1]): > 75%

B38: QMFEGQILDV (peptide)
peptide: QMFEGQILDV
notes: gene: AIM1L
peptide exchange yield (HLA-A*02:01 [2]): 50 to 75%

B39: LLQEGEVYSA (peptide)
peptide: LLQEGEVYSA
notes: gene: PRPF8
peptide exchange yield (HLA-A*02:01 [2]): 50 to 75%

B40: RVISSVISV (peptide)
peptide: RVISSVISV
notes: gene: ELTD1
peptide exchange yield (HLA-A*02:01 [2]): 50 to 75%

B41: AVVSSVNTV (peptide)
peptide: AVVSSVNTV
notes: gene: SNCG
peptide exchange yield (HLA-A*02:01 [2]): 50 to 75%

B42: KVFGGFQVV (peptide)
peptide: KVFGGFQVV
notes: gene: HES1
peptide exchange yield (HLA-A*02:01 [1]): > 75%

B43: FIPDFAVAI (peptide)
peptide: FIPDFAVAI
notes: gene: COL6A3
peptide exchange yield (HLA-A*02:01 [1]): > 75%

B44: FLDPATPRV (peptide)
peptide: FLDPATPRV
notes: gene: TGIF1
peptide exchange yield (HLA-A*02:01 [2]): 50 to 75%

B45: ILLDTPLFLL (peptide)
peptide: ILLDTPLFLL
notes: gene: SERHL2
peptide exchange yield (HLA-A*02:01 [2]): 50 to 75%

B46: SLDKGTLYI (peptide)
peptide: SLDKGTLYI
notes: gene: PLBD1
peptide exchange yield (HLA-A*02:01 [2]): 50 to 75%

B47: NLHNSYYSV (peptide)
peptide: NLHNSYYSV
notes: gene: CCNG2
peptide exchange yield (HLA-A*02:01 [2]): 50 to 75%

B48: VILDKYYFL (peptide)
peptide: VILDKYYFL
notes: gene: TMPRSS4
peptide exchange yield (HLA-A*02:01 [1]): > 75%

B49: ALSFSSSAGPGLLKA (peptide)
peptide: ALSFSSSAGPGLLKA
notes: gene: KRT7
peptide exchange yield (HLA-A*02:01 [2]): 50 to 75%

B50: ALDPASISV (peptide)
peptide: ALDPASISV
notes: gene: DCUN1D1
peptide exchange yield (HLA-A*02:01 [2]): 50 to 75%

B51: HLLDSKVPSV (peptide)
peptide: HLLDSKVPSV
notes: gene: ITGB4
peptide exchange yield (HLA-A*02:01 [2]): 50 to 75%

B52: FLIJLIISV (peptide)
peptide: FLI[pS]LIISV
notes: gene: TAS2R9
peptide exchange yield (HLA-A*02:01 [2]): 50 to 75%

B53: ALASLENHV (peptide)
peptide: ALASLENHV
notes: gene: TRIM33
peptide exchange yield (HLA-A*02:01 [2]): 50 to 75%

B54: YLFPETEFI (peptide)
peptide: YLFPETEFI
notes: gene: TBX3
peptide exchange yield (HLA-A*02:01 [2]): 50 to 75%

B55: GMTELYFQL (peptide)
peptide: GMTELYFQL
notes: gene: PRKDC
peptide exchange yield (HLA-A*02:01 [2]): 50 to 75%

B56: NLDAATYQV (peptide)
peptide: NLDAATYQV
notes: gene: SLC35A3
peptide exchange yield (HLA-A*02:01 [2]): 50 to 75%

B57: ALLDEQQVNVLL (peptide)
peptide: ALLDEQQVNVLL
notes: gene: ID1
peptide exchange yield (HLA-A*02:01 [2]): 50 to 75%

B58: LLDLIQTKV (peptide)
peptide: LLDLIQTKV
notes: genes: AP2B1, AP1B1
peptide exchange yield (HLA-A*02:01 [2]): 50 to 75%

B59: ALADGVPVAL (peptide)
peptide: ALADGVPVAL
notes: gene: AP5B1
peptide exchange yield (HLA-A*02:01 [2]): 50 to 75%

B60: KLTNGIWVL (peptide)
peptide: KLTNGIWVL
notes: gene: AP1B1
peptide exchange yield (HLA-A*02:01 [2]): 50 to 75%

B61: TVGPGLLGV (peptide)
peptide: TVGPGLLGV
notes: gene: VWF
peptide exchange yield (HLA-A*02:01 [2]): 50 to 75%

B62: YLIGLDPENLAL (peptide)
peptide: YLIGLDPENLAL
notes: gene: CROT
peptide exchange yield (HLA-A*02:01 [2]): 50 to 75%

B63: ALIGDDVGL (peptide)
peptide: ALIGDDVGL
notes: gene: C17orf85
peptide exchange yield (HLA-A*02:01 [2]): 50 to 75%

B64: SLQSFIHGV (peptide)
peptide: SLQSFIHGV
notes: gene: TMC7
peptide exchange yield (HLA-A*02:01 [2]): 50 to 75%

B65: ILDEMRAQL (peptide)
peptide: ILDEMRAQL
notes: gene: OAS3
peptide exchange yield (HLA-A*02:01 [2]): 50 to 75%

B66: GLYEGLDWL (peptide)
peptide: GLYEGLDWL
notes: genes: ARF3, TRIM23, ARF1, ARF4
peptide exchange yield (HLA-A*02:01 [2]): 50 to 75%
